Data on 1 molecule can be found in publication PMC12410180, “An anti-CEA affibody showing high-definition staining in human pancreatic cancer tissue sections and selective tumor targeting in vivo” (Translational Oncology, 2025).

This test deals with T1, human CEA His6-tag (Acro BioSystems, cat. hCE5-H5226) (Homo sapiens, UniProt P06731).
T1 construct: human carcinoembryonic antigen (CEA, CEACAM5), recombinant, His6-tagged; Glycosylated; also called CEACAM5; carcinoembryonic antigen-related adhesion molecule 5; source: bought: Acro BioSystems, produced in HEK293 cells
T1 sequence (P06731 35-685): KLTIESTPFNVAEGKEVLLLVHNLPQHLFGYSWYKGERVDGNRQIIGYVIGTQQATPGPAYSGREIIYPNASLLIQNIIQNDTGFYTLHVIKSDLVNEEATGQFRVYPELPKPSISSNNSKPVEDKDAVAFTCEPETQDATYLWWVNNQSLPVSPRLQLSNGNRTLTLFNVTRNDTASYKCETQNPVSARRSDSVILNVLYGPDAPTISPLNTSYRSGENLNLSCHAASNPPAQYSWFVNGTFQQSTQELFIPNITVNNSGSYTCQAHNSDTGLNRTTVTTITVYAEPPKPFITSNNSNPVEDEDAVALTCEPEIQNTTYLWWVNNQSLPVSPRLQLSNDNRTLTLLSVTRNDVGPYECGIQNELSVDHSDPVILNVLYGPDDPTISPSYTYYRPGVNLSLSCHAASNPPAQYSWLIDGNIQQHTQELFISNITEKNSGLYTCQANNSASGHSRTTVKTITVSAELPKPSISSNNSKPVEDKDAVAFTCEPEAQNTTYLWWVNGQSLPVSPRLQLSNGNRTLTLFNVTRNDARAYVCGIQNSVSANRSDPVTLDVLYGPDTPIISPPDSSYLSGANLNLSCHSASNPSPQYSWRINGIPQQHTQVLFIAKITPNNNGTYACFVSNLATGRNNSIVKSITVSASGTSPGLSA
The test can be described thus: SPR; MFE-23 scFv dilution series (1-100 nM, 3-fold) over a freshly immobilized surface with CEA (2500 RU); 25 °C, PBST pH 7.4; Langmuir 1:1 fit. As to conditions: both partners purified.

B1: anti-CEA scFv fragment MFE-23 (scFv, V domains shown)
VH: QVKLQQSGAELVRSGTSVKLSCTASGFNIKDSYMHWLRQGPEQGLEWIGWIDPENGDTEYAPKFQGKATFTTDTSSNTAYLQLSSLTSEDTAVYYCNEGTPTGPYYFDYWGQGTTVTVSS
VL: ENVLTQSPAIMSASPGEKVTITCSASSSVSYMHWFQQKPGTSPKLWIYSTSNLASGVPARFSGSGSGTSYSLTISRMEAEDAATYYCQQRSSYPLTFGAGTKLELK
notes: Expressed from pET22b(+) with a PelB signal peptide; also called MFE-23 scFv; scFv MFE-23; source: E. coli BL21(DE3), periplasmic preparation, purified (IMAC)
Usually Kd stands for the free concentration of one partner at which half of the binding sites on the other are occupied at equilibrium, for simple one-to-one binding. A higher Kd goes with weaker binding. Turning to B1, the Kd was roughly 15 nM.
